Experimental data as given in publication PMC10659578, “Mechanism of stepwise electron transfer in six-transmembrane epithelial antigen of the prostate (STEAP) 1 and 2” (eLife, 2023).

Test system: T1, Cc1cc2c(cc1C)N(C[C@H](O)[C@H](O)[C@H](O)COP(=O)(O)OP(=O)(O)OC[C@H]1O[C@@H](n3cnc4c(N)ncnc43)[C@H](O)[C@@H]1O)c1[nH]c(=O)[nH]c(=O)c1N2
T1 construct: full-length, expressed and purified as in Kim et al. 2016; detergent-solubilised
Assay: rapid-scan stopped-flow heme reduction (A427), kobs vs [FADH-]
Type: biochemical, Oryctolagus cuniculus
Conditions: fast phase, single-turnover heme reduction, anaerobic, 20 mM HEPES pH 7.5, 150 mM NaCl, 0.1% LMNG

Chain of STEAP1 (Oryctolagus cuniculus; L230G) (chain, as listed by the source L230G): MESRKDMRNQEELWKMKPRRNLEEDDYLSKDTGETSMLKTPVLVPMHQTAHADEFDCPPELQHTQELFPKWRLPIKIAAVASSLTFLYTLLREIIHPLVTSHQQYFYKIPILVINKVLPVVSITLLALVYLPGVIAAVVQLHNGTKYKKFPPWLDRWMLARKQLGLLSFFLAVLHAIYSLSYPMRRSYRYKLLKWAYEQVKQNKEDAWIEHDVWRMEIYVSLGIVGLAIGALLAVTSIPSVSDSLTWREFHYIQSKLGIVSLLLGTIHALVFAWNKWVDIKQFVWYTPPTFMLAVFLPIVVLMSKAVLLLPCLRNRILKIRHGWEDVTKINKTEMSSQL

Substance	Km (60% of change)	Km (79% of change)
STEAP1 (Oryctolagus cuniculus)	4.7 µM	–
STEAP1 (Oryctolagus cuniculus; L230G)	–	3.6 µM
